Reference: patent US20230287125A1 (LEPU BIOPHARMA, published 2023)

B1: Hu67F3G7-22, Human IgG1 (N297A)-Fc (antibody, V domains shown)
VH: EVQLVQSGAEVKKPGASVKVSCKASGYTFTDFWVSWVRQAPGQGLEWMGEIYPNSGVSRYNEKFKGRVTMTVDKSISTAYMELSRLRSDDTAVYYCTKYFGYTYWFGYWGQGTLVTVSS
VL: DIQMTQSPSSLSASVGDRVTITCRASKSVSTYMHWYQQKPGKQPKLLIYSASHLESGVPSRFSGSGSGTDFTLTISSLQPEDFATYYCQQSNELPVTFGGGTKVEIK
B2: Hu67F3G7-21 (antibody, V domains shown)
VH: EVQLVQSGAEVKKPGASVKVSCKASGYTFTDFWVSWVRQAPGQGLEWMGEIYPNSGVSRYNEKFKGRVTMTVDKSISTAYMELSRLRSDDTAVYYCARYFGYTYWFGYWGQGTLVTVSS
VL: DIQMTQSPSSLSASVGDRVTITCRASKSVSTYMHWYQQKPGKQPKLLIYSASHLESGVPSRFSGSGSGTDFTLTISSLQPEDFATYYCQQSNELPVTFGGGTKVEIK
notes: humanized
B3: Hu67F3G7-2 (antibody, V domains shown)
VH: EVQLVQSGAEVKKPGASVKVSCKASGYTFTDFWVSWVRQAPGQGLEWMGEIYPNSGVSRYNEKFKGRVTMTVDKSISTAYMELSRLRSDDTAVYYCTKYFGYTYWFGYWGQGTLVTVSS
VL: DIQMTQSPSSLSASVGDRVTITCRASKSVSTYMHWYQQKPGKAPKLLIYSASHLESGVPSRFSGSGSGTDFTLTISSLQPEDFATYYCQQSNELPVTFGGGTKVEIK
notes: humanized
B4: Hu67F3G7-20 (antibody, V domains shown)
VH: EVQLVQSGAEVKKPGASVKVSCKASGYIFTDFWVSWVRQAPGKGLEWIGEIYPNSGVSRYNEKFKGRVTMTVDKSISTAYMELSRLRSDDTAVYYCTKYFGYTYWFGYWGQGTLVTVSS
VL: DTVLTQSPSLSASVGDRVTITCRASKSVSTYMHWYQQKPGKQPKLLIYSASHLESGVPSRFSGSGSGTDFTLTISSLQPEDFATYYCQQSNELPVTFGGGTKVEIK
notes: humanized
B5: Hu67F3G7-19 (antibody, V domains shown)
VH: EVQLVQSGAEVKKPGASVKVSCKASGYIFTDFWVSWVRQAPGQGLEWIGEIYPNSGVSRYNEKFKGRVTMTVDKSISTAYMELSRLRSDDTAVYYCARYFGYTYWFGYWGQGTLVTVSS
VL: DTVLTQSPSLSASVGDRVTITCRASKSVSTYMHWYQQKPGKQPKLLIYSASHLESGVPSRFSGSGSGTDFTLTISSLQPEDFATYYCQQSNELPVTFGGGTKVEIK
notes: humanized
B6: Hu89C10H8-7, Human IgG1 (N297A)-Fc (antibody, V domains shown)
VH: EVQLVESGGGLVKPGGSLRLSCAASGFTFSNYWMTWIRQAPGKGLEWVASITNTGSSTFYPDSVKGRFTISRDNAKNSLYLQMNSLRAEDTAVYYCTRDTTIAPFDYWGQGTMVTVSS
VL: DIQMTQSPSSLSASVGDRVTITCKASQNLNEYLNWYQQKPGKAPKRLIYKTNTLQAGIPSRFSGSGSGTDYTLTISSLQPEDFATYYCSQYNSGNTFGQGTKLEIK
B7: Hu89C10H8-14 (antibody, V domains shown)
VH: EVQLVESGGGLVKPGGSLRLSCAASGFTFSNYWMTWVRQAPGKGLEWVASITNTGSSTFYPDSVKGRFTISRDNAKNSLYLQMNSLRAEDTAVYYCTRDTTIAPFDYWGQGTMVTVSS
VL: DIQMTQSPSSLSASVGDRVTITCKASQNLNEYLNWYQQKLGEAPKRLIYKTNTLQAGIPSRFSGSGSGIDYTLTISSLQPEDFATYFCSQYNSGNTFGQGTKLEIK
notes: humanized
B8: Hu89C10H8-16 (antibody, V domains shown)
VH: EVQLVESGGGLVKPGGSLRLSCAASGFTFSNYWMTWIRQAPGKGLEWVASITNTGSSTFYPDSVKGRFTISRDNAKSSLYLQMNSLRAEDTAVYYCTRDTTIAPFDYWGQGTMVTVSS
VL: DIQMTQSPSSLSASVGDRVTITCKASQNLNEYLNWYQQKLGEAPKRLIYKTNTLQAGIPSRFSGSGSGIDYTLTISSLQPEDFATYFCSQYNSGNTFGQGTKLEIK
notes: humanized
B9: Hu89C10H8-13 (antibody, V domains shown)
VH: EVQLVESGGGLVKPGGSLRLSCAASGFTFSNYWMTWVRQAPGKGLEWVASITNTGSSTFYPDSVKGRFTISRDNAKNSLYLQMNSLRAEDTAVYYCARDTTIAPFDYWGQGTMVTVSS
VL: DIQMTQSPSSLSASVGDRVTITCKASQNLNEYLNWYQQKLGEAPKRLIYKTNTLQAGIPSRFSGSGSGIDYTLTISSLQPEDFATYFCSQYNSGNTFGQGTKLEIK
notes: humanized
B10: Hu89C10H8-4 (antibody, V domains shown)
VH: EVQLVESGGGLVKPGGSLRLSCAASGFTFSNYWMTWIRQAPGKGLEWVASITNTGSSTFYPDSVKGRFTISRDNAKSSLYLQMNSLRAEDTAVYYCTRDTTIAPFDYWGQGTMVTVSS
VL: DIQMTQSPSSLSASVGDRVTITCKASQNLNEYLNWYQQKPGKAPKRLIYKTNTLQAGVPSRFSGSGSGTDYTLTISSLQPEDFATYYCSQYNSGNTFGQGTKLEIK
notes: humanized
B11: Hu89C10H8-15 (antibody, V domains shown)
VH: EVQLVESGGGLVKPGGSLRLSCAASGFTFSNYWMTWIRQAPGKGLEWVASITNTGSSTFYPDSVKGRFTISRDNAKNSLYLQMNSLRAEDTAVYYCTRDTTIAPFDYWGQGTMVTVSS
VL: DIQMTQSPSSLSASVGDRVTITCKASQNLNEYLNWYQQKLGEAPKRLIYKTNTLQAGIPSRFSGSGSGIDYTLTISSLQPEDFATYFCSQYNSGNTFGQGTKLEIK
notes: humanized
B12: 47C6A3, Human IgG1 (N297A)-Fc (antibody, V domains shown)
VH: DVQLQESGPGLVKPSQSLSLTCTVTGYSITSDYAWNWIRQFPGNKLEWMGYIIYSGSTSYNPSLKSRISITRDTSKNQFFLQLNSVTTEDTATYYCARSTMIATNWFAYWGQGTLVTVSA
VL: DIVMTQSHKFMSTSVVDRVSITCKASQDVSLAVAWYQQKPGQSPKLLIYWASTRHTGVPDRFTGSGSGTDFALTISSVQAEDLALYYCQQHYITPWTFGGGTKLEIK

Columns and labels:
[1] = molecular target: PD-L1 on PD-L1 target cells (Homo sapiens (Human), UniProt Q9NZQ7 19-290); assay: cell-based or functional assay
[2] = molecular target: T1, human PD-L1-his tag protein (human, UniProt Q9NZQ7 19-238); assay: SPR (Biacore), affinity ranking, PDL1-His
T1 construct: also called human PD-L1-His protein; recombinant PD-L1 protein; not shown: his tag

human PD-L1-Fc protein [3] = molecular target: T2, human PD-L1-Fc protein (human, UniProt Q9NZQ7 19-238); assay: ELISA, antibody titrated on coated human PD-L1-Fc, OD 450nm; lower right panel
T2 construct: coating antigen of the ELISAs; also called rhPD-L1-Fc; not shown: Fc
Description: (§1) To evaluate antigen binding activity, the humanized antibodies were subjected to ELISA test. Briefly, microtiter plates were coated with human PD-L1-Fc protein at 0.5 μg/ml in PBS, 100 μl/well at 4° C. overnight, then blocked with 200 μl/well of 1% BSA. Three-fold dilutions of humanized antibodies starting from 10 μg/ml were added to each well and incubated for 1 hour at 37° C. The plates were washed with PBS/Tween and then incubated with mouse-anti-human IgG Fab antibody conjugated with Horse Radish Peroxidase (HRP) for 1 hour at 37° C. After washing, the plates were developed with TMB substrate and analyzed by spectrophotometer at OD 450 nm.

human PD-L1-Fc protein [4] = molecular target: T2, human PD-L1-Fc protein; assay: receptor blocking ELISA: coated human PD-L1-Fc, blocked ligand biotin-labeled human PD-1-Fc (Bio-PD1), OD 450nm; upper left panel
Description: (§2) Briefly, microtiter plates were coated with human PD-L1-Fc protein at 0.5 μg/ml in PBS, 100 μl/well at 4° C. overnight, then blocked with 150 μl/well of 1% BSA at 37° C. for 2 hours. […] The plates were washed with PBS/Tween and then incubated with Streptavidin-HRP for 10 mins at 37° C. After washing, the plates were developed with TMB substrate and analyzed by spectrophotometer at OD 450 nm.

[5] = molecular target: T3, human PD-L1 over-expressed on CHOK1 cells (human, UniProt Q9NZQ7 19-290); assay: flow cytometry (MFI) on PDL1-CHOK1 cells; upper right panel
T3 construct: whole, on cells; also called PDL1-CHOK1 cells
Description: (§3) To evaluate the antigen binding property, the humanized antibodies were analyzed for their binding to PD-L1 overexpressed on mammalian cells by FACS. Briefly, PDL1-CHOK1 cells were firstly incubated with 3-fold serious diluted humanized antibodies starting at 15 μg/ml at 4° C. for 40 mins. After washed by PBS, the Alexa Fluor® 647 AffiniPure Goat Anti-Human IgG (H+L) antibody was added to each well and incubated at 4° C. for 30 mins. The MFI of Alexa Fluor® 647 was evaluated by FACSCanto.

[6] = molecular target: T1, human PD-L1-his tag protein; assay: SPR (Biacore T200), mAb captured on Protein A chip, PD-L1-his injected
Description: The binding of the humanized antibodies to recombinant PD-L1 protein (human PD-L1-his tag) was tested by Biacore using a capture method. […] A serial dilution of human PD-L1-his tag protein was injected over captured antibody for 2 mins at a flow rate of 30 μl/min. The antigen was allowed to dissociate for 1500 s. All the experiment were carried out on a Biacore T200.

human PD-L1-Fc protein [7] = molecular target: T2, human PD-L1-Fc protein; assay: ELISA, antibody titrated on coated human PD-L1-Fc, OD 450nm; upper left panel
Description: as §1

human PD-L1-Fc protein [8] = molecular target: T2, human PD-L1-Fc protein; assay: receptor blocking ELISA: coated human PD-L1-Fc, blocked ligand biotin-labeled human CD80-Fc (Bio-CD80), OD 450nm; upper left panel
Description: as §2

human PD-L1-Fc protein [9] = molecular target: T2, human PD-L1-Fc protein; assay: ELISA, antibody titrated on coated human PD-L1-Fc, OD 450nm; lower left panel
Description: as §1

[10] = molecular target: T3, human PD-L1 over-expressed on CHOK1 …; assay: flow cytometry (MFI) on PDL1-CHOK1 cells; lower right panel
Description: as §3

T1 sequence (Q9NZQ7 19-238 limits assumed): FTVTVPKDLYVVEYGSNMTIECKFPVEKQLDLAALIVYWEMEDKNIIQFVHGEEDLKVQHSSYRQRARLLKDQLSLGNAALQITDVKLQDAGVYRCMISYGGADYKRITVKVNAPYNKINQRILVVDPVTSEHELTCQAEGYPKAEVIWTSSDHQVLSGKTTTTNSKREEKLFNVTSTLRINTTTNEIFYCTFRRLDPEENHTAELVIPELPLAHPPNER
T2 sequence (Q9NZQ7 19-238 limits assumed): as above
Chain of PD-L1 on PD-L1 target cells (Q9NZQ7 19-290 limits assumed): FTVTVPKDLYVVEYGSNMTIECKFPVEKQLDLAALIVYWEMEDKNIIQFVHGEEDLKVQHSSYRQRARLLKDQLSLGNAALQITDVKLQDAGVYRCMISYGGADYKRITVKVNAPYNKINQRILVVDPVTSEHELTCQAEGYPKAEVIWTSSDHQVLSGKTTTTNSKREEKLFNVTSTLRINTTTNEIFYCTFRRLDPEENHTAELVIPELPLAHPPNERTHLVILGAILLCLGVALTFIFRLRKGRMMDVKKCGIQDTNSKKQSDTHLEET
T3 sequence (Q9NZQ7 19-290): as the sequence (Q9NZQ7 19-290 limits assumed) above

Row | Binder | Kd [2] [pM] | koff [2] [s⁻¹] | kon [2] [M⁻¹ s⁻¹] | EC50 (human PD-L1-Fc protein [9]) [µg/mL] | further results
1 | B1 | – | – | – | – | EC50, NFAT-RE-mediated luminescence, PD1 effector cells co-cultured with PD-L1 target cells [1]: 103 pM
2 | B2 | 156 | 8.43e-05 | 540000 | – | EC50 (human PD-L1-Fc protein [3]): 0.00919 µg/mL
3 | B3 | 37.9 | 9.75e-05 | 2.57e+06 | – | IC50 (human PD-L1-Fc protein [4]): 0.109 µg/mL; EC50 [5]: 108 pM; Kd [6]: 36.7 pM; koff [6]: 7.03e-05 s⁻¹; kon [6]: 1.92e+06 M⁻¹ s⁻¹; EC50 (human PD-L1-Fc protein [7]): 0.0132 µg/mL; IC50 (human PD-L1-Fc protein [8]): 0.282 µg/mL
4 | B4 | 34.7 | 9.36e-05 | 2.7e+06 | – | EC50 (human PD-L1-Fc protein [3]): 0.0146 µg/mL
5 | B5 | 54.5 | 0.000107 | 1.97e+06 | – | EC50 (human PD-L1-Fc protein [3]): 0.0132 µg/mL
6 | B6 | – | – | – | – | EC50, NFAT-RE-mediated luminescence, PD1 effector cells co-cultured with PD-L1 target cells [1]: 214 pM
7 | B7 | 137 | 9.75e-05 | 712000 | 0.00983 | –
8 | B8 | 98 | 6.54e-05 | 667000 | 0.00757 | –
9 | B9 | 561 | 0.000433 | 764000 | 0.00994 | –
10 | B10 | 95.4 | 5.94e-05 | 623000 | – | EC50 [10]: 127 pM; IC50 (human PD-L1-Fc protein [4]): 0.111 µg/mL; Kd [6]: 96.2 pM; koff [6]: 5.41e-05 s⁻¹; kon [6]: 562000 M⁻¹ s⁻¹; EC50 (human PD-L1-Fc protein [7]): 0.00683 µg/mL; IC50 (human PD-L1-Fc protein [8]): 0.353 µg/mL
11 | B11 | 91.8 | 7.17e-05 | 781000 | 0.0088 | –
12 | B12 | – | – | – | – | EC50, NFAT-RE-mediated luminescence, PD1 effector cells co-cultured with PD-L1 target cells [1]: 150 pM
